Data: the DeepSol protein solubility set

assay: soluble on expression in E. coli; label from the status in PepcDB or PDB records

Sequence | soluble on expression in E. coli
MEKNRSAFQQNQQASNQPFNQDQNQYYQDPNQQQFNQSGFDPNQQQFNQPGFDPNQQYYQDPNQQQFNQAGFDQNQQYYQDPNQQQFNQPGFDPNQQYYQDPNQQQFNQAGFDQNQYYQDPNQQQFNQSGFDQNQYYQDPNQQQFNQPSFDLNNQQFNQPGFNQSPAFEITPQEQKAEQEMFGEEPPQVVREIHELPFEKIRSFLQSDFDSYNFRLNSLKSKLDNALYSLDKTIQNTNENTANLEAIRHNLEQKIQNQSKQLRTNFDTQKLDDKINELEIRMQKLTRNFESLSELSKHNSYPNYYEKLLPNGGDSMTNVFEKALMMNLLRTTLPPQPQVQYYPQPYPYIRPYYDEPIYAGFRRRGYRDDFYE | soluble
MEKQEEEDVKRRQRQKAATSLGFLHWEELKNHGDLSKVALNIALTTLVDDASTGFCIMNLVNLIVLRESSQGYLLTYEGKLASLASATYVKAFISLWVLEDAERHAWSFRTFSLTFPLDDPILDTFLELTGVTEAGEFVYAPTTLQSPFHALYFDPQRNSFRRVIYEGLADDEFRRRNRLGYERHHILPNHIESLISL | soluble
MEKSEIQKVDQVIRAWLEDEPLMYERLLEVEALEALPQVLGPLYKFLGRSRIHDGVLYLTFNSSVVRSQLSNNKAELLLRLNTAVDAELIRQIVFL | not soluble
MEKSVSVILLAGGQGKRMKMSMPKQYIPLLGQPIALYSFFTFSRMPEVKEIVVVCDPFFRDIFEEYEESIDVDLRFAIPGKERQDSVYSGLQEIDVNSELVCIHDSARPLVNTEDVEKVLKDGSAVGAAVLGVPAKATIKEVNSDSLVVKTLDRKTLWEMQTPQVIKPELLKKGFELVKSEGLEVTDDVSIVEYLKHPVYVSQGSYTNIKVTTPDDLLLAERILSEDS | soluble
MEKTVIGVVHLLPLPGSPEHTDLSAVIDKAVKDARAIEEGGADALILENYGDKPFLKEVGKETVAAMTVIACEVKRDVSIGLGINVLRNDAVAALAIAKAVNADFVRVNQLFFTSVSPEGILEGKAGEVMRYKKLVDCRAMIFADIAVKHAVHFASLEDYCLNAERSLADAVILTGKTTGGEVSLEELKYAKKTLKMPVLAGSGVNAENAARILKWCDGVIVGTYIKRGGLVDAERVRRIVRAAKGLEHHHHHH | not soluble
MEKVNPKIQRLMSTDKQHFLTKHEFHTKETAERKDLLKFFIETRLKTDGGFLTNYLPDAERKDVATGHELLSESSGLYLRNLAFDTQGRFDNFYKQTKDTFYDGVQFSYRIDEQGNKYNVNASIDDLRIIRSLIEAGGHFKTDQYDQEIKKLGKSFMKTSMKDNILIDFYDSKSKQQSSETSLFYIDLITLGYLYKEFGISADYLQYHYQLIDDGYISDDLPLYQTKFNHQTNKYENNGTLNIIESLLTIVHLSEVGMAKQTSIDFVRKQVQQGTLFNSYDLNGSPVDKNQSAASYAIAALIGVAENDKELYRAAITVLNNFQIMDSSSPIYGGFGDKVTKQVYSYNNLMALLAYDF | not soluble
MEKYLPILRNSPFFKGLSDNEILSILHCVNATVISKERASYIFRAGDSTEVMGLVVSGCVLVMQEDLWGHRNILSKCHAGDFFGEPYAASLGAVLNISVAADEDCEIIFLNVQRLLVTCQTACEHHQKLIRNLVSVLANKILILNDKITHVGKRTTRDKLLSYLSAESIRRSSLSFDIPFDRQQLADYLCIDRAAMSTEISKLQKEGFIKTNRNHFELIACNETDLQADK | not soluble
MELASNFDEFISTQSIEEGLDFGCNLLSSALRLQGDTDPAQAQVLLQELTQYLSLRYVGEHGLALEYLAGLGHQCSPDNYRHSQFWGQLKWIANEIGLSDTALNSLALPPGVLRSGGA | not soluble
MELEQREGTMAAVGFEEFSAPPGSELALPPLFGGHILESELETEVEFVSGGLGGSGLRERDEEEEAARGRRRRQRELNRRKYQALGRRCREIEQVNERVLNRLHQVQRITRRLQQERRFLMRVLDSYGDDYRASQFTIVLEDEGSQGTDAPTPGNAENEPPEKETLSPPRRTPAPPEPGSPAPGEGPSGRKRRRVPRDGRRAGNALTPELAPVQIKVEEDFGFEADEALDSSWVSRGPDKLLPYPTLASPASD | soluble
MELFELFILDANGVPRGKLLHRDELLAVYRSGRPLPSTILGLTMNGEDVEDSGLVWDVGDIDCRAYPLSGSLVRLPWRQIPTAAVQVSMHPSEGLPASVADPRHLLVRTIDALKSEGYHPVMAAELEFYLLDRERDANGRPQPARDADGGRPRATQVYGLRELEQIEPFLADLYAACKAQGLPARTAISEYAPGQVEITLDHGDALAAMDQAIRYKRLVKGIAHKHGMLACFMAKPFDDLAGTGMHLHVSLADEQGHNLFASDDPAGTPLLRQAVGGMLASLLDSLLLFCPNANSYRRFQANSYAPLAQTWGVDNRTVSLRVPGGPASSRHIEHRICGADANPYLAAAALLAGVHRGIREGIDPGAPVEGNGYAQAGKRLPTDWLTALDTLQGSEWAREAFGEPFLGVYLAVKRAEYRQFMGEVGEQDWRWYL | not soluble
MELFTEAWAQAYCRKLNESEAYRKAASTWEGSLALAVRPDPKAGFPKGVAVVLDLWHGACRGAKAVEGEAEADFVIEADLATWQEVLEGRLEPLSALMRGLLELKKGTIAALAPYAQAAQELVKVAREVA | soluble
MELKFVVPDMAETFGKLGYAGEGEILTEGYGRNTVVIGRSYHLYSSKQRADDIEVVVAAEAGEKDFDQDQPLKAVNPHLVAKGYAIENRGFTDYVLYVDDLVKA | not soluble
MELRHIRYFLAVAEERHFTRAATKLGIGQPPLSQQIKDLERELGAQLFRRVPHGAELTEAGKAFYDVVKGMPATATRAVLAAQRVARGESGVLRVGFTASAAFNSVVPGAIRTFKRAYPDVRLQLEEGNTTQLADELNEGSLDVAFLRPGFTGNERFQLRLLSEEPMVIVLAETHPAAACKQIALSILKDEFFLLFPREIGLSLYDAVIKACGKAGFEPKIGQLVPQISSVINLVSAEMGVSMVPDSMRQVNVKGVVYRPVADQMPVAKLALAYRRGDTSPTLRNFILKVTG | not soluble
MELSSPITIYWDLPATAADPSLLLAIAAGIIDCRPLMLNVTSTAPTSPGWLGEVLERFRGGPAAVTLTIPPQAHDDTVRALVAHGAVRELLLDVDHADLLDSGEWQDEPSAGVSYAVTHGNWRELPTLVHYCLDRGITRLVLPMQRLYGGEPPFFLTMNEQRELANALDAEGGAQRLALTIHDPFLWRAFNPGVPFPQGGCQAANTMIAIAPDGGVYPCPTLPVRLGTAGEMPLQELIASEAKKALRRRLLEHPRACGACGELAECRGGCRGRAYVMHQSLEGEDPSCWLEHHHHHH | not soluble
MEMKQKLLTDIELDVHELKLLMNTFSKEPTQTLSELLKRSILRMQERLEQLSEEISAVPVEASPSPVAEAESEAPIVEEQAPVIEEVECPVIEEKVVEENEATAPGEDEPVIVQEPQTVVEEAVIEEPVVEDEMEEKEAEDESEDDESLLIEEPKTAVLGESIKMAAGLRHSISLNDSFRFSREIFGGDPELMNRVIEQISVMSSYKTAVAFLASKVSVNEENEAMIDFLELLKKYFNQSA | soluble
MEMLSGAEMVVRSLIDQGVKQVFGYPGGAVLDIYDALHTVGGIDHVLVRHEQAAVHMADGLARATGEVGVVLVTSGPGATNAITGIATAYMDSIPLVVLSGQVATSLIGYDAFQECDMVGISRPVVKHSFLVKQTEDIPQVLKKAFWLAASGRPGPVVVDLPKDILNPANKLPYVWPESVSMRSYNPTTTGHKGQIKRALQTLVAAKKPVVYVGGGAITAGCHQQLKETVEALNLPVVCSLMGLGAFPATHRQALGMLGMHGTYEANMTMHNADVIFAVGVRFDDRTTNNLAKYCPNATVLHIDIDPTSISKTVTADIPIVGDARQVLEQMLELLSQESAHQPLDEIRDWWQQIEQWRARQCLKYDTHSEKIKPQAVIETLWRLTKGDAYVTSDVGQHQMFAALYYPFDKPRRWINSGGLGTMGFGLPAALGVKMALPEETVVCVTGDGSIQMNIQELSTALQYELPVLVVNLNNRYLGMVKQWQDMIYSGRHSQSYMQSLPDFVRLAEAYGHVGIQISHPHELESKLSEALEQVRNNRLVFVDVTVDGSEHVYPMQIRGGGMDEMWLSKTERT | soluble
MENFSLLYSSEEDALLSYADIRNFQLVWNMVDIEQKRSIPVRRVKFLLRLLKGRLEVNDESDGLLFKHMCHEMERLHNGDDVSFHDVLNMLSYRSVDIRKSLQLEELLQREELEYIIEEEVAKHTIRAWLENCLKNIKAKQNNTLGKMSSIGSTFAFPQSQEVLTKGVVLTEASPEEDSLQGDKGSGKKKAQRGNSITEIVAEAQKKSVKRATDKISERRGTLRQMQMGTYDELEEVEEDEDTDGEIRRSSFEYSGVDMIQMSHEKQLEDVKTWWTLCD | not soluble
MENKTNNTKTEIKKKDMSKTFETIKGELFFEDKVIQKIIGIALDEIDGLLTIDGGFFSNIAGKLVNTDNTTSGVDVEVGKKQVAVDLSIVAEYGKDVTTIYDKMKQVISNEVKKMTGLDVIEINVNVVDVKTKEQHENDSVTLQDHLSDAASATGEFASKQFEKSKEALGVASEKVSDGVQNVKEETEPRVKLEHHHHHH | soluble
MEPEDTQLKEDIKTTVNYIKQHGVEFENKLLEDERFSFIKKDDPLHEYYTKLMNEPTDTVSGEDNDRKSEREIARPPDFLFSQYDTGISRRDMEVIKLTARYYAKDKSIVEQMISKDGEARLNFMNSSHPLHKTFTDFVAQYKRVYSFTGQEIKKSKRTILDNCFERTQYWEFEKDKDREHDKLVELCKIQFAAIPWDKFTQVAKFSIPEDTEIFEGSLDLEQMRLRRVQTGIKLFDSIKPTNEEEKIVSDQGKQKGGDSKGKKRKIRAVGETRLKKSKK | soluble
MEPEFLYDLLQLPKGVEPPAEEELSKGGKKKYLPPTSRKDPKFEELQKVLMEWINATLLPEHIVVRSLEEDMFDGLILHHLFQRLAALKLEAEDIALTATSQKHKLTVVLEAVNRSLQLEEWQAKWSVESIFNKDLLSTLHLLVALAKRFQPDLSLPTNVQVEVITIESTKSGLKSEKLVEQLTEYSTDKDEPPKDVFDELFKLAPEKVNAVKEAIVNFVNQKLDRLGLSVQNLDTQFADGVILLLLIGQLEGFFLHLKEFYLTPNSPAEMLHNVTLALELLKDEGLLSCPVSPEDIVNKDAKSTLRVLYGLFCKHTQKAHRDRTPHGAPN | soluble
MEPHLKIDVSSASGSTTTGATASTSEAPQDSQAQQTMPPPSSDWSNQFNSPEAEDMGPFVEQLLPFVRASAYNWFHLQAAKRRHFKEFDKKMCASEENAKLAELQNDRDELKVKWASRLLGKIKKDIQNDDKEAFISAINGSEPNKCIISVADQKGKMRRIDCLRQADKVWRLDLVTIILFKGIPLESTDGERLERSEACVHPLCINPFHMAISVRGLDVFMANYLKDVDTKITLTYPRNDELSDTVMVKQEPGEQTIVAPHAVLGTSSTHTRVWETNSERNAETIIITYDPQKACHTYFGGRATLAQQSLSAGNTYMVNKTAVDNNFFNAKRSVLCLPPPPIQNCFPYPIAGTSDSQQMDMSEDSNDGPSEKRSRDISSHDSPNSSTNDEVRRIVESGTEKLVLGSSIWAAPGQFSRTQQNQGAPGTSRQVRPLPDFQSQDSARSPGAFRSTAKPVCRMTVNTGNHGDVGVVVVDERNREHVIHAQHIVNALSSLRTTPSMRESPVGRKRMHPHTSNSFEFLNCNQEMNKNEGALGSDISPTHTAVSNLISRESSGYMASPTKFTTARGDTTSFSKIFQKIEEKHLQHNQPSTSYCNSQIQPPILSSKPVDSSVKLIAPVAVKPIMSGCNSIIPSPITTPRITPSFRMLEDDSLINVLGQLAHSNDGTTLNDSFIQHLIDTNSRSPLLSSGNAFSALSMGARIEFVGCSNGIGRSSKYCTGRPANSKCNVTSSSRAANQAPVSNTPQDPNAPKLPTDFSHALRNEKK | not soluble
